# This sample holds only a part of the variants without activity.
# How the values were obtained:
# biotinyl-Ile-oxazolone = assay: self-aminoacylation, catalytic enhancement (BIO) (fold over background); higher = more active; k-Seq, kA / k0A0; sequences stand for … in GGGAAUGGAUCCACAUCUACGAAUUC…UUCACUGCAGACUUGACGAAGCUG
# Summary of the method: (§1)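 Working in 50 μL HEPES/NaCl/KCl/MgCl2/CaCl2 buffer with 5% acetonitrile at pH 6.9–7.0, mutagenized RNA pools (0.43 μM; 21-nt variable region) were reacted with 2–1250 μM of each biotinyl-aminoacyl-oxazolone for 90 minutes at room temperature. Streptavidin capture followed, with quantification by triplicate qPCR and Illumina sequencing. Catalytic enhancement is reported as median kA over the uncatalyzed rate, the low-activity peak of a bimodal Gaussian fit to the data.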
# biotinyl-Met-oxazolone = assay: self-aminoacylation, catalytic enhancement (BMO) (fold over background); higher = more active; k-Seq, kA / k0A0; sequences stand for … in GGGAAUGGAUCCACAUCUACGAAUUC…UUCACUGCAGACUUGACGAAGCUG
# Summary of the method: as §1
# biotinyl-Trp-oxazolone = assay: self-aminoacylation, catalytic enhancement (BWO) (fold over background); higher = more active; k-Seq, kA / k0A0; sequences stand for … in GGGAAUGGAUCCACAUCUACGAAUUC…UUCACUGCAGACUUGACGAAGCUG
# Summary of the method: as §1
# biotinyl-Val-oxazolone = assay: self-aminoacylation, catalytic enhancement (BVO) (fold over background); higher = more active; k-Seq, kA / k0A0; sequences stand for … in GGGAAUGGAUCCACAUCUACGAAUUC…UUCACUGCAGACUUGACGAAGCUG
# Summary of the method: as §1
# biotinyl-Phe-oxazolone = assay: self-aminoacylation, catalytic enhancement (BFO) (fold over background); higher = more active; k-Seq, kA / k0A0; sequences stand for … in GGGAAUGGAUCCACAUCUACGAAUUC…UUCACUGCAGACUUGACGAAGCUG
# Summary of the method: as §1
# biotinyl-Leu-oxazolone = assay: self-aminoacylation, catalytic enhancement (BLO) (fold over background); higher = more active; k-Seq, kA / k0A0; sequences stand for … in GGGAAUGGAUCCACAUCUACGAAUUC…UUCACUGCAGACUUGACGAAGCUG
# Summary of the method: as §1
Sequence,self-aminoacylation (biotinyl-Ile-oxazolone),self-aminoacylation (biotinyl-Met-oxazolone),self-aminoacylation (biotinyl-Trp-oxazolone),self-aminoacylation (biotinyl-Val-oxazolone),self-aminoacylation (biotinyl-Phe-oxazolone),self-aminoacylation (biotinyl-Leu-oxazolone)
AAGUGUUCUAAUAGUCGCAAG [Fam3.1 aminoacylation ribozyme variant],1.6,1.7,1.54,1.32,2.39,1.64
AUUCUCCUAGGGCAUCGGGUG [Fam2.2 aminoacylation ribozyme variant],2.92,4.21,3.58,3.73,28.7,4.7
AUUACCCUGGUCAUCGCGUGC [Fam2.1 aminoacylation ribozyme variant],2.81,3.35,4.47,2.75,16.8,4.64
AUUCAACUAGGUCAUCGAGUG [Fam2.2 aminoacylation ribozyme variant],1.55,2.2,1.84,1.45,2.85,3.13
AAGUUUGCGAAUAGUCCCAAG [Fam3.1 aminoacylation ribozyme variant],1.06,1.14,0.863,0.844,1.03,0.951
AUUCACCUAGGUCAUGGGGUC [Fam2.2 aminoacylation ribozyme variant],1.32,1.39,1,1.4,1.36,1.2
AUUACCCUGGUCAGAGAGUGA [Fam2.1 aminoacylation ribozyme variant],3.18,7.04,8.25,3.41,19.9,6.71
CUUACCCUGGUCAUCGAGUAA [Fam2.1 aminoacylation ribozyme variant],2.03,4.58,3.51,2.8,8.84,4.25
AUUCAACUAGGUGAUCGGGUG [Fam2.2 aminoacylation ribozyme variant],3.02,3.11,4.01,2.76,21.9,4.01
CCACACUCCCAGCAAUCGGUC [Fam1B.1 aminoacylation ribozyme variant],1.65,1.41,1.02,1.59,0.634,1.6
AUUACCCUGGUCUUCGUGUGA [Fam2.1 aminoacylation ribozyme variant],1.05,1.46,1.93,1.02,7.45,1.45
AUUCGACUAGGUCAUCGGGUG [Fam2.2 aminoacylation ribozyme variant],4.46,7.05,6.57,3.95,47.3,8.63
AUCACCCUGGUCAUCGAGUAA [Fam2.1 aminoacylation ribozyme variant],2,3.93,2.89,2.21,6.38,3.44
CCUCACUUCAAGCAAUCGCUC [Fam1B.1 aminoacylation ribozyme variant],1.16,1.15,0.912,1.18,1.27,1.36
CCACACUUCACGCAAUCAGUC [Fam1B.1 aminoacylation ribozyme variant],0.823,0.662,0.962,0.731,0.704,0.673
CCACCCUUCAAGCAAUCAGUC [Fam1B.1 aminoacylation ribozyme variant],0.736,0.672,1.94,0.828,5.72,0.775
AUUACCCUGGCCAUCGAAUGA [Fam2.1 aminoacylation ribozyme variant],1,0.928,0.331,1.31,1.84,1.4
AAGUCUUCUAAUAGUCGCAAG [Fam3.1 aminoacylation ribozyme variant],2.06,1.56,2.07,1.52,3.19,1.83
CUACUUCAAACGAUCAGUCUG [Fam1A.1 aminoacylation ribozyme variant],0.633,0.593,0.734,0.751,1.22,0.549
AUUACCCUGGUCAACGGGUGA [Fam2.1 aminoacylation ribozyme variant],4.83,9.43,10.8,4.61,46.6,9.68
CUACUCCAAAAAAUCGGUCUG [Fam1A.1 aminoacylation ribozyme variant],0.894,0.674,1.06,0.846,1.33,0.857
AAGUUUCCUAAUUGUCGCAAG [Fam3.1 aminoacylation ribozyme variant],1.47,1.14,0.994,1.38,0.96,1.88

Sequence,self-aminoacylation (biotinyl-Ile-oxazolone),self-aminoacylation (biotinyl-Met-oxazolone),self-aminoacylation (biotinyl-Trp-oxazolone),self-aminoacylation (biotinyl-Val-oxazolone),self-aminoacylation (biotinyl-Phe-oxazolone),self-aminoacylation (biotinyl-Leu-oxazolone)
AUUCACCCAGGUCCUCGGGUG [Fam2.2 aminoacylation ribozyme variant],3.22,5.45,5.85,3.89,35.5,6.67
AUUAAUCUGGUCAUCGAGUGA [Fam2.1 aminoacylation ribozyme variant],3.24,4.7,6.95,2.88,15.6,5.01
CUUCACCAAGGUCAUCGGGUG [Fam2.2 aminoacylation ribozyme variant],4.21,8.17,7.64,5.4,59.9,9.25
CUACUUCAAACAAUGUGUCUG [Fam1A.1 aminoacylation ribozyme variant],0.838,0.662,0.583,0.848,0.725,0.716
GAGUUUGCUAACAGUCGCAAG [Fam3.1 aminoacylation ribozyme variant],1.4,1.62,5.6,1.41,10.7,1.3
UUUCACCUAGGUCAUCGGGUU [Fam2.2 aminoacylation ribozyme variant],6.15,10.4,7.39,5.7,44.3,12.6
AUUCACCUCGGUCAGCGGGUG [Fam2.2 aminoacylation ribozyme variant],3.13,4.51,4.8,3.37,28.3,5.84
AUUGCCCUGGUCAUCGAGUGG [Fam2.1 aminoacylation ribozyme variant],9.44,30.9,29.8,10.9,197,29.4
CGACAUUUCAAGCAAUCGGUC [Fam1B.1 aminoacylation ribozyme variant],1.18,1.09,1.33,1.17,1.28,1.06
CCUCACUUCAAGCAAUCGGCC [Fam1B.1 aminoacylation ribozyme variant],1.9,1.53,5.38,2.39,5.49,1.59
CCACACUGCAAGCAAUCGCUC [Fam1B.1 aminoacylation ribozyme variant],2.73,2.1,1.78,2.35,16,2.4
AUUCACCUAGUUGAUCGGGUG [Fam2.2 aminoacylation ribozyme variant],2.5,3.66,4.26,2.79,23.9,4.3
AUUUCCCUGGUCAUCGAGUGC [Fam2.1 aminoacylation ribozyme variant],1.1,1.86,1.21,1.08,2.11,1.59
CCACACUUCACGCCAUCGGUC [Fam1B.1 aminoacylation ribozyme variant],1.59,1.31,2.05,2.13,1.28,1.51
AAGUUUGCUAAUAGUCGGUAG [Fam3.1 aminoacylation ribozyme variant],0.974,0.878,0.993,0.771,1.66,1.03
AUUACCGUGGCCAUCGAGUGA [Fam2.1 aminoacylation ribozyme variant],3.2,4.71,8.11,3.89,32.8,5.84
AAGUUUGAUAAUACUCGCAAG [Fam3.1 aminoacylation ribozyme variant],0.638,0.617,0.52,0.511,0.788,0.493
AUUCACCUAGGUCAUCGGGAU [Fam2.2 aminoacylation ribozyme variant],3.59,6.11,5.12,3.4,18.7,9.22
AUUCUCCUAGGUCUUCGGGUG [Fam2.2 aminoacylation ribozyme variant],4.96,7.28,7.39,4.77,44.1,8.25
CUAUUUCAAACAAUCGGUUUG [Fam1A.1 aminoacylation ribozyme variant],0.907,0.903,3.18,0.81,4.11,1
AAUUUUGCUAACAGUCGCAAG [Fam3.1 aminoacylation ribozyme variant],1.88,1.28,1.88,1.58,3.07,1.87

# Source: the supplement of paper PMC9233669
